Results on one protein are retold here after article PMC6900432, “Zinc binding regulates amyloid-like aggregation of GAPR-1” (Bioscience Reports, 2019).

The data set concerns the molecule itself. Description: non-reducing SDS/PAGE and Western blot of oligomers; 15 uM GAPR-1 with 37.5 uM heparin and 100 uM Zn2+ in NT-50 buffer (25 mM Tris, 50 mM NaCl, pH 7.4) at 37 C; aliquots at 0, 2, 7 and 20 h, non-reducing Laemmli buffer, boiled 5 min; blot with rabbit polyclonal anti-GAPR-1. Background: Immunoblotting shows a protein as a band on a membrane.

B1: Golgi-Associated plant Pathogenesis Related protein 1 (GAPR-1), wild type (natural protein)
chain: MGKSASKQFHNEVLKAHNEYRQKHGVPPLKLCKNLNREAQQYSEALASTRILKHSPESSRGQCGENLAWASYDQTGKEVADRWYSEIKNYNFQQPGFTSGTGHFTAMVWKNTKKMGVGKASASDGSSFVVARYFPAGNVVNEGFFEENVLPPKK
notes: GAPR-1 (GLIPR-2), UniProt Q9H4G4 as printed; No tag is named; purification was by cation exchange; also called GAPR-1 WT; GLIPR-2; source: E. coli XL-1 Blue, purified (cation exchange, SP Sepharose FF)
With B1, the binding result was “binds”.
